Numbering of substitutions follows the chain as printed.
T1: cynomolgus macaque (Macaca fascicularis) CD39 on cells (cynomolgus macaque (Macaca fascicularis), UniProt P49961 7-510 (human entry))
T1 construct: CHO cells engineered to express cyno CD39, or primary cyno B cells and monocytes; also called cyno CD39; cCD39
T1 chain: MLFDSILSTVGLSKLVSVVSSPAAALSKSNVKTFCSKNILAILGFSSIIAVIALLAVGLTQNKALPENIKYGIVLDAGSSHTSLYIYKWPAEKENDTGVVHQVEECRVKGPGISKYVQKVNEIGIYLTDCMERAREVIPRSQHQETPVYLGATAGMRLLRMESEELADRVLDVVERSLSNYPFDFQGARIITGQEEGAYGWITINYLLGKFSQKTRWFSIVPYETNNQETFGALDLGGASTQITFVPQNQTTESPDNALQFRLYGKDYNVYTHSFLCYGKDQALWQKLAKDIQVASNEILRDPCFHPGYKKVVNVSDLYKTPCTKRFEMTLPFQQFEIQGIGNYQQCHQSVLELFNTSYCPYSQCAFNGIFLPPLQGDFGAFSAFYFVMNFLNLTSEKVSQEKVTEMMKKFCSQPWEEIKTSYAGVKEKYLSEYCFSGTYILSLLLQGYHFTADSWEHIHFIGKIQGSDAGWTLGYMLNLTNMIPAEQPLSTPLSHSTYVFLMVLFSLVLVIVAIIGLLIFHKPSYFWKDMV

T2: human CD39 on cells (human, UniProt P49961 1-510)
T2 construct: One molecule for all cells that carry human CD39; the cell is named under assay; also called hCD39; cellular CD39
T2 sequence: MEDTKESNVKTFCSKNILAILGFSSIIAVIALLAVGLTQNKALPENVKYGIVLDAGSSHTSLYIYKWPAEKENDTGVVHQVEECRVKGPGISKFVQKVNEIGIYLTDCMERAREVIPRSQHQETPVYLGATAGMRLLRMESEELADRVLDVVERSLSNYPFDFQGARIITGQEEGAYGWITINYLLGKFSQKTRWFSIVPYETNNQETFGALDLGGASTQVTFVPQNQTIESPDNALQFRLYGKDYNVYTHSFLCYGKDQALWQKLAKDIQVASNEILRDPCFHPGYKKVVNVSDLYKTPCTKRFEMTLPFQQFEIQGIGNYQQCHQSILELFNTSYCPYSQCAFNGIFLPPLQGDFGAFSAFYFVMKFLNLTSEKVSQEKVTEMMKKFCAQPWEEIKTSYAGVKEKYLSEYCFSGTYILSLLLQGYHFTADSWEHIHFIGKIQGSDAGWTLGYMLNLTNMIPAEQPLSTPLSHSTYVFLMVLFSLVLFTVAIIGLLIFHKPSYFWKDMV

T3: rhCD39-ECD-His (R&D Systems) (human, UniProt P49961 38-478)
T3 construct: Bought protein; that entry runs on through the C-terminal transmembrane and cytoplasmic residues; also called recombinant human CD39 extracellular domain; soluble recombinant human CD39 (ENTDP1) ECD; not shown: His tag
T3 sequence: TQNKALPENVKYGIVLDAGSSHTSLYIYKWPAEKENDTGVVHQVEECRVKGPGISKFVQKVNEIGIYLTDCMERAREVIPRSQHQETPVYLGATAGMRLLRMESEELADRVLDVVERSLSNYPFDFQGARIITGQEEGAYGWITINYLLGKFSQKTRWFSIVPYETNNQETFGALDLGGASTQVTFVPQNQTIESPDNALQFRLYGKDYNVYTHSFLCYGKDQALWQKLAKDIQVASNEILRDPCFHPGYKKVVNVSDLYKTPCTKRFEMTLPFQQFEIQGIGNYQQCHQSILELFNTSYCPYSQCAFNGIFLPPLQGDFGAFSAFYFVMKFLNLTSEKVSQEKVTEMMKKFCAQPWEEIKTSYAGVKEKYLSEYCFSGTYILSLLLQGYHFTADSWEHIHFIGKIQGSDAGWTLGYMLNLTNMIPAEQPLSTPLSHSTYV

B1: 31901 (antibody, V domains shown)
VH: QVQLVQSGAEVKKPGSSVKVSCKASGGTFSSLPISWVRQAPGQGLEWMGGIGFGTANYAQKFQGRVTITADESTSTAYMELSSLRSEDTAVYYCARGGAKYAGRYGMDVWGQGTTVTVSS
VL: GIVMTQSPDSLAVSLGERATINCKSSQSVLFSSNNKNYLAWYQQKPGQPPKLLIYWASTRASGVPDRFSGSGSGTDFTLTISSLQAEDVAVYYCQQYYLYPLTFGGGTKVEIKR
B2: 31905 (antibody, V domains shown)
VH: B1 VH with S30P, L32N, P33A, G103R, R104T
VL: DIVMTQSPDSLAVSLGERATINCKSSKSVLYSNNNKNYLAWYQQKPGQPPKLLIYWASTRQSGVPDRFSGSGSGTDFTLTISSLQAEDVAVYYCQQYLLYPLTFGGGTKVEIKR
B3: 31437 (antibody, V domains shown)
VH: QVQLVQSGAEVKKPGASVKVSCKASGGTFQSLAISWVRQAPGQGLEWMGGILPIGGTANYAQKFQGRVTITADESTSTAYMELSSLRSEDTAVYYCARGGAKYAGRYGMDVWGQGTTVTVSS
VL: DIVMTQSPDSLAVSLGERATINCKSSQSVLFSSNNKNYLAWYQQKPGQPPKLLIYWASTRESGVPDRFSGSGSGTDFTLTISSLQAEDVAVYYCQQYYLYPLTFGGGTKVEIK

How the values were obtained:
[1] = molecular target: T1, cynomolgus macaque (Macaca …); assay: flow cytometry on cyno PBMC, gated B cells, anti-human IgG PE, Prism fit; unit from the x axis
Experimental: (§1) EC50 was calculated using GrapPad Prism software. […] B cells were gated using FlowJo software and ECsos were calculated using GraphPad Prism.
(§2) B cells were isolated from human donor leukopak using EasySep B cell isolation kit ([…] Technologies). Cyno monocytes were purified from fresh cyno blood using NHP CD14 positive selection kit (Miltenyi) and flow through was collected and stained with CD4, CD8, CD20, CD16, and CD3 antibodies (BD). […] Cell were washed 3 times in FACS buffer (PS, 2% FBS, and 2 mM EDTA) and incubated with secondary antibody (mouse anti-human IgG southern biotech) at 1:100 for 30 minutes at 4 degrees C. Cells were washed 2 times in FACS buffer and resuspended in FACS buffer and analyzed on BD Celesta.

human CD39 on cells [2] = molecular target: T2, human CD39 on cells; assay: flow cytometry on 721 cells, anti-human IgG secondary, Prism fit; unit from the x axis
Experimental: (§3) Cells were washed 3 times in FACS buffer (PS, 2% FBS, and 2 mM EDTA) and next incubated with secondary antibody (goat anti-human IgG Southern Biotech) at 1:100 for 30 minutes at 4 degrees C. Cells were washed, resuspended in FACS buffer, and analyzed for binding by flow cytometry analysis on BD Celesta.

[3] = molecular target: T3, rhCD39-ECD-His (R&D Systems); assay: BLI (Octet), IgG on anti-human Fc sensor, rhCD39-ECD-His 10-300 nM, 1:1 fit
human CD39 on cells [4] = molecular target: T2, human CD39 on cells; assay: flow cytometry on MEL-28 cells, anti-human IgG secondary, Prism fit; unit from the x axis
Experimental: as §3

[5] = molecular target: T1, cynomolgus macaque (Macaca …); assay: flow cytometry, 100 nM IgG, cCD39-CHO cells; MFI ratio to parental CHO
human CD39 on cells [6] = molecular target: T2, human CD39 on cells; assay: flow cytometry on purified human CD4+CD25+CD127dim Treg cells, anti-human IgG secondary, Prism fit; unit from the x axis
Experimental: Treg cells were isolated from human donor leukopak using CD4⁺CD25⁺CD127^dim regulatory T cell isolation kit II (Miltenyi). […] Cell were washed 3 times in FACS buffer (PS, 2% FBS, and 2 mM EDTA) and incubated with secondary antibody (mouse anti-human IgG southern biotech) at 1:100 for 30 minutes at 4 degrees C. Cells were washed 2 times in FACS buffer, resuspended in FACS buffer and analyzed on BD Fortessa.

human CD39 on cells [7] = molecular target: T2, human CD39 on cells; assay: flow cytometry, 100 nM IgG, hCD39-CHO cells; MFI ratio to parental CHO
human CD39 on cells [8] = molecular target: T2, human CD39 on cells; assay: flow cytometry on purified human B cells, anti-human IgG-PE, Prism fit; unit from the x axis
Experimental: as §1, §2

Binder	EC50 [1] [µg/mL]	EC50 (human CD39 on cells [2]) [µg/mL]	Kd [3] [nM]	koff [3] [s⁻¹]	kon [3] [M⁻¹ s⁻¹]	EC50 (human CD39 on cells [4]) [µg/mL]	Cell Binding (FOB) [5] [FOB]	EC50 (human CD39 on cells [6]) [nM]	Cell Binding (FOB) (human CD39 on cells [7])	EC50 (human CD39 on cells [8]) [µg/mL]
B1	0.124	0.851	0.128	0.000132	1.03e+06	0.102	4660	0.519	1110	0.0438
B2	0.124	2.63	0.0731	0.000111	1.52e+06	0.159	4940	0.735	1080	0.0805
B3	0.108	7.46	0.558	0.000213	382000	0.368	3640	–	1290	0.109
